# Laboratory results reported in patent US20260258141A1 (BIOCYTOGEN PHARMACEUTICALS BEIJING, published 2026).
# Residue numbers refer to the chain shown, from its start.
# B1: anti-IGF1R antibody 12A4 (antibody, V domains shown)
# VH: EVQLVQSGGGEIRPGGSLRLSCAASGFTFADYGMSWVRQAPGEGLEWVSEIDWTGGSKLYADSVKGRFTISRDNAKNSLFLQMNSLRAEDTALYYCVRDRGAVSPKYYYYGMDVWGQGTTVTVSS
# VL: EIVLTQSPSSLSASVGDRVTITCRASQGIRNDLGWYQQKPGKAPKRLIYAASRLQSGVPSRFSGSGSGTDFTLTISSLQPEDFATYYCLQHNSYPYTFGQGTKLEIK
# B2: anti-IGF1R antibody 10D1 (antibody, human IgG1, V domains shown)
# VH: QVQLQQSGGGVVRPGGSLRLSCAASGFTFADYGMSWVRQVPGKGLEWVSGINWNGGSTDYADSVKGRFTISRDNAKHSLYLQMNSLRAEDTAFYYCARDRGAVSRRYYYYGMDVWGLGTTVTVSS
# VL: B1 VL with E1A, V3Q, G28D, Q38L, R61G, D70E
# B3: anti-IGF1R antibody 10G1 (antibody, human IgG1, V domains shown)
# VH: QVQLVESGGGLVKPGGSLRLSCAASEFTFSDYYMSWIRQSPGKGLEWVSYISNSGSFTNYADSVKGRFTISRDNAKNSLYLQMNSLRAEDSAIYYCVRDQAPVTSKYYYYGMDVWGQGTTVTVSS
# VL: B1 VL with L33F, G34A, S56R, D70E
# B4: anti-IGF1R antibody 12D1 (antibody, human IgG1, V domains shown)
# VH: B2 VH with Q5V, Q6E, A30D, D73E, N74K, H77N, F93L, A97V, S104T, L117Q
# VL: B1 VL with E1D, V3Q, L4M, G28D, Q38L, D70E
# Molecular target: T1, human IGF1R (insulin-like growth factor 1 receptor) on cells (human, UniProt P08069 31-1367)
# T1 sequence (P08069 31-1367 limits assumed): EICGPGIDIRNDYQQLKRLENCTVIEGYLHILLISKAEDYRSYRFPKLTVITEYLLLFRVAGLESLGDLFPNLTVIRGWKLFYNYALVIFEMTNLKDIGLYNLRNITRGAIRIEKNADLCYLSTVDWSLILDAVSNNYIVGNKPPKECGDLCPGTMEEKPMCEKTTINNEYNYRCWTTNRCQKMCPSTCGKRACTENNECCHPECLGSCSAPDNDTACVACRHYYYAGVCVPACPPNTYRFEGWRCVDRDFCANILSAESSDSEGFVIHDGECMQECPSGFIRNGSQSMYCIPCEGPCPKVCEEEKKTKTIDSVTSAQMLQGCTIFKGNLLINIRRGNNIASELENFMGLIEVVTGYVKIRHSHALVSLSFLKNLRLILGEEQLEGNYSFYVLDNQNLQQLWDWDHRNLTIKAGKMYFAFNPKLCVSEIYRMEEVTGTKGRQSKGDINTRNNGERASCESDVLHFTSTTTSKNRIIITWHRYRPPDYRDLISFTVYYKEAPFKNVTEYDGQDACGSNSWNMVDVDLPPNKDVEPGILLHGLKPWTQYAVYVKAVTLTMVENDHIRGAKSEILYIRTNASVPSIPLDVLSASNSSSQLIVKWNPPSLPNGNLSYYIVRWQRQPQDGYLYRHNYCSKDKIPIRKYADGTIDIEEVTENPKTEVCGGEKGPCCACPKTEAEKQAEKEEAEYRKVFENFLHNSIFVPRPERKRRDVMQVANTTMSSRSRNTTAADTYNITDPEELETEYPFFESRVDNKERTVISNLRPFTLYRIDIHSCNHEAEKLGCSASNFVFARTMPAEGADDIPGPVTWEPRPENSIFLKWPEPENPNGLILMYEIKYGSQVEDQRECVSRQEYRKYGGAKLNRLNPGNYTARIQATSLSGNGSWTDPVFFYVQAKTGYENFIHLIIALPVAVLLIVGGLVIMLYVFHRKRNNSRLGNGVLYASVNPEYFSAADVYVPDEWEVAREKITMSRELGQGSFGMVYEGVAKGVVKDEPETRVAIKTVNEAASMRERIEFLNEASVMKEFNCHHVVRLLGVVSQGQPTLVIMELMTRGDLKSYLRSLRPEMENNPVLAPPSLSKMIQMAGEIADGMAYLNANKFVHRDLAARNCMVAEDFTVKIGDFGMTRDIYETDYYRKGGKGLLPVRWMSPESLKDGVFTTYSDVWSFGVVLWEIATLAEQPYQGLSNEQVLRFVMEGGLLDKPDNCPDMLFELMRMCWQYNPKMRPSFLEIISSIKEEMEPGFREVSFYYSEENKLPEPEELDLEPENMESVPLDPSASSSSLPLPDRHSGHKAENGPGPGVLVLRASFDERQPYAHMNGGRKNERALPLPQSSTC
# Assay: cell-based or functional assay
row,Binder,"EC50 of internalization (MFI of pHAb-labelled secondary Fab, NCI-H838 cells) [nM]"
1,B1,0.92
2,B2,0.51
3,B3,1.12
4,B4,0.66

# Molecular target: T1, human IGF1R (insulin-like growth factor …)
# Assay: cell-based or functional assay
# Remark: another data set of the same source
Binder,IC50 of inhibition of IGF-1-induced proliferation (NCI-H838 cells) [nM],Max inhibition (%) (10 µg/mL) of IGF-1-induced proliferation (NCI-H838 cells)
B1,0.045,105
B2,0.14,117
B3,0.091,88
B4,0.064,145

# Molecular target: T1, human IGF1R (insulin-like growth factor …)
# Assay: cell-based or functional assay
# Remark: another data set of the same source
row,Binder,IC50 of inhibition of IGF-1-induced OPN secretion (U2OS-TSHR cells) [nM]
1,B1,0.068
2,B2,0.046
3,B3,0.13
4,B4,0.096

# Molecular target: T2, human insulin receptor INSR on cells (human, UniProt P06213 28-1382)
# T2 construct: Expressed on CHO-S cells; also called hINSR; CHO-S-hINSR cells
# T2 sequence (P06213 other isoform, or with tags, fused parts or gaps limits assumed): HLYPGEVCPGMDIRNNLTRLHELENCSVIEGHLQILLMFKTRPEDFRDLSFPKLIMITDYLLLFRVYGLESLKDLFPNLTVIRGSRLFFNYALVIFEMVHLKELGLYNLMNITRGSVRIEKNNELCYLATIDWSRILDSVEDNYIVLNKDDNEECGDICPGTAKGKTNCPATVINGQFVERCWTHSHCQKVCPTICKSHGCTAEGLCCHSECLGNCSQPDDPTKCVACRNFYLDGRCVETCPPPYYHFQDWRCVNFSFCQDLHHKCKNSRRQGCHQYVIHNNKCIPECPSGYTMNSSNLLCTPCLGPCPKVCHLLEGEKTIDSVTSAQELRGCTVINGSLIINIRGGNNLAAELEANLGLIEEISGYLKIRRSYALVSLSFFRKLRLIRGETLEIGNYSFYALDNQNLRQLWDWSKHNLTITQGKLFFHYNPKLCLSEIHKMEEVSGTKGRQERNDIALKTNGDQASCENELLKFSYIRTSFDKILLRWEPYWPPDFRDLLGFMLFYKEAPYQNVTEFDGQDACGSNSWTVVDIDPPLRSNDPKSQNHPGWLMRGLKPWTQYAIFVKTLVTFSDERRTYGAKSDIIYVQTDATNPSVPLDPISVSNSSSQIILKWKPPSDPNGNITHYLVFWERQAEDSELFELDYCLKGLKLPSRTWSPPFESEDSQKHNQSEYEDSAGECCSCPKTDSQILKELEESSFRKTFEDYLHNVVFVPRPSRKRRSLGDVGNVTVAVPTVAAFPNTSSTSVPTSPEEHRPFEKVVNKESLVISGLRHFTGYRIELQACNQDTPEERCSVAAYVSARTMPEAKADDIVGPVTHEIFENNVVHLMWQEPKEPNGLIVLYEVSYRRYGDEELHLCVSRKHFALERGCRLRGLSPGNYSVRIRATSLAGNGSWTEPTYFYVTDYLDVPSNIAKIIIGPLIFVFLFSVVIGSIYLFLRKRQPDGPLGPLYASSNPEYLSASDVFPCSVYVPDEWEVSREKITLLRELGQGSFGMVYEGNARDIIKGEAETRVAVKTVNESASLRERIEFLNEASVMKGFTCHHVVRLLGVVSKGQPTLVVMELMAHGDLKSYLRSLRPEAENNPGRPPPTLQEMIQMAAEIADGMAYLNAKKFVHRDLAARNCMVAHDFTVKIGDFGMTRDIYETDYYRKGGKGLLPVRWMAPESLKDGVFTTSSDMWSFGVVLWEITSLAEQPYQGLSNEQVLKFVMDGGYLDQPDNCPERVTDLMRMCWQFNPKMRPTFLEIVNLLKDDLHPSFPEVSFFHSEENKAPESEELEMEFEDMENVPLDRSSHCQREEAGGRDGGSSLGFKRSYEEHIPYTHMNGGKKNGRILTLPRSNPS
# Assay: flow cytometry on CHO-S-hINSR cells
# Method: (§1) INSR (insulin receptor) and IGF1R are both members of the superfamily of receptor tyrosine kinases (RTKs). The binding activity of anti-IGF1R antibodies to human IGF1R, human INSR and monkey IGF1R was verified by flow cytometry. Briefly, CHO-S-hIGF1R cells (expressing human IGF1R (SEQ ID NO: 45), CHO-S-fasIGF1R cells (expressing cynomolgus monkey IGF1R (SEQ ID NO: 46) and CHO-S-hINSR (expressing SEQ ID NO: 47) were plated in a 96-well plate at a density of 2×10⁵ cells/well respectively. Purified anti-IGF1R antibody with a concentration of 20 μg/mL was added to each well and was incubated at 4° C. for 30 minutes. Then, after one wash with PBS, the cells were incubated with the secondary antibody Alexa Fluor® 647 anti-human IgG Fcγ (Jackson ImmunoResearch Laboratories, Inc., Cat #: 109-606-170) at 4° C. for 15 minutes before flow cytometry analysis. Human IgG1 was used as ISO control.
row,Binder,binding result
1,B1,no binding (tested: 20 µg/mL)
2,B2,no binding (tested: 20 µg/mL)
3,B3,no binding (tested: 20 µg/mL)
4,B4,no binding (tested: 20 µg/mL)

# Molecular target: T3, cynomolgus monkey IGF1R on cells (cynomolgus monkey, UniProt P08069 31-1367 (human entry))
# T3 construct: Expressed on CHO-S cells; also called fasIGF1R; CHO-S-fasIGF1R cells
# T3 sequence (P08069 other isoform, or with tags, fused parts or gaps limits assumed): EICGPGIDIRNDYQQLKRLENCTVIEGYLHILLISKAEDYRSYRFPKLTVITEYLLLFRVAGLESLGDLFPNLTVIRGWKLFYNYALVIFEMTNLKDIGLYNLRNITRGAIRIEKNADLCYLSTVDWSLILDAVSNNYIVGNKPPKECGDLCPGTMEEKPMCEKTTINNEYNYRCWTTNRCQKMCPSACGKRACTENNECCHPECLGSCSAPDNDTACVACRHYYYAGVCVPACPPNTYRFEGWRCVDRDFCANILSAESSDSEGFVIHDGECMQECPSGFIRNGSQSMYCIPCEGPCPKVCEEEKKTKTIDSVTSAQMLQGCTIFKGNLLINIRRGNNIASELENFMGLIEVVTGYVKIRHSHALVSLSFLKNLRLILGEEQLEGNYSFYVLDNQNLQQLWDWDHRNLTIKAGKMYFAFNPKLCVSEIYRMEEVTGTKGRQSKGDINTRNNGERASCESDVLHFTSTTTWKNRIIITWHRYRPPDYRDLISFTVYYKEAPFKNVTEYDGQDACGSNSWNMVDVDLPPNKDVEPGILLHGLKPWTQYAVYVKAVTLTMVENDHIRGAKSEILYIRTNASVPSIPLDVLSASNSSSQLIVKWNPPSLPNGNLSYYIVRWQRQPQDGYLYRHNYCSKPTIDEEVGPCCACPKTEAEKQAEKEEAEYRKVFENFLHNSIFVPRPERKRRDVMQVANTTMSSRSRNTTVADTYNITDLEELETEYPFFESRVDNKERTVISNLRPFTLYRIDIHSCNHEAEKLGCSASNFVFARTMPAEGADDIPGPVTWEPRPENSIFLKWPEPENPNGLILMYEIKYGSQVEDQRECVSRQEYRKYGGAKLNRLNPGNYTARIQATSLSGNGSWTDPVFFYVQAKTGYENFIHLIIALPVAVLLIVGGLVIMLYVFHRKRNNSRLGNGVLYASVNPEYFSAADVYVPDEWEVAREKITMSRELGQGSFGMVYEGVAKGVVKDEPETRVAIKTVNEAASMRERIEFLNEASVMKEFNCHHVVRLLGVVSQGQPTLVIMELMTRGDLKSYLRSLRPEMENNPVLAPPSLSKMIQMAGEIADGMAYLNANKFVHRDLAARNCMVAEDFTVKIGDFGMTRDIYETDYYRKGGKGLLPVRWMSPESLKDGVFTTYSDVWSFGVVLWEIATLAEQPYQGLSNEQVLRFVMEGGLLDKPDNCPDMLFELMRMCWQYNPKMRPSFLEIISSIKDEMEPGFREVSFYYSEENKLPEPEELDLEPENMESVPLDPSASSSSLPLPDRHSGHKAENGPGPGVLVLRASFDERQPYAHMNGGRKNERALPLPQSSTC
# Assay: flow cytometry on CHO-S-fasIGF1R cells, antibody 20 µg/mL
# Method: as §1
row,Binder,Percentage of positive cells [%]
1,B1,54.4
2,B2,64.8
3,B3,73.9
4,B4,60.7

# Molecular target: T4, His-tagged human IGF1R protein (ACRO Biosystems Inc., Cat #: IGR-H5229) (human, UniProt P08069 31-932)
# T4 construct: Bought protein; also called hIGF1R-His; not shown: His tag
# T4 sequence (P08069 31-932): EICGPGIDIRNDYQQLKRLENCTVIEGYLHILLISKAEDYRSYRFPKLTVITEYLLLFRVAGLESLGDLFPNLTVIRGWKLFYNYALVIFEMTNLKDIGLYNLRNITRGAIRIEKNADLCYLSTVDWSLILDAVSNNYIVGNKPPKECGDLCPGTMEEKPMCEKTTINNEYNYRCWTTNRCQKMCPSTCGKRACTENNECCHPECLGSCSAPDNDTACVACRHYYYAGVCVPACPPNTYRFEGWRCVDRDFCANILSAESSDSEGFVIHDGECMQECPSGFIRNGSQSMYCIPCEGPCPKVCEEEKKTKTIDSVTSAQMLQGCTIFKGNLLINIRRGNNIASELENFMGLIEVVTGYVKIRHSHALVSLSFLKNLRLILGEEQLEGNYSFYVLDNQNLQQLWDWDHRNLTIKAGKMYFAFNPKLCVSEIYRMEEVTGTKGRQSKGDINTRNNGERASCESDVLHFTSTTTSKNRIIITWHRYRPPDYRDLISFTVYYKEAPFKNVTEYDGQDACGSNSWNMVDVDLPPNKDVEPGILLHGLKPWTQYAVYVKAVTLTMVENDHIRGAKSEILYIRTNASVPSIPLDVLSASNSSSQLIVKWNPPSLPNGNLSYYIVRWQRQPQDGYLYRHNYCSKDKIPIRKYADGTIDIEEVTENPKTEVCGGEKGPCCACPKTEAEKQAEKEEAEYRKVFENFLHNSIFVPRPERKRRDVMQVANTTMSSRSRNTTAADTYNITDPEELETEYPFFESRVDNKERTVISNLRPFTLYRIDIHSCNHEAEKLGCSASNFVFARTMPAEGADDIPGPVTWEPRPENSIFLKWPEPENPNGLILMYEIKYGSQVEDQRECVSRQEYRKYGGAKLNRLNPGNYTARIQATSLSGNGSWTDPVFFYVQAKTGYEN
# Assay: blocking ELISA on coated hIGF1R-His; blocked ligand: biotinylated human IGF-II
# Method: Blocking assays were performed to determine whether the anti-IGF1R antibodies can block the binding between IGF1R and its ligand IGF-1 and IGF-2. Specifically, the microwell plates were coated with 100 μl/well of 5 μg/mL hIGF1R-His in pH 9.6 carbonate buffer, overnight at 4° C. Plates were blocked with at 200 μl/well of 1% bovine serum albumin and incubated at 37° C. for 2 hours. Serially diluted anti-IGF1R antibodies (0.005-10 μg/mL in 3-fold serial dilution plus buffer blank) were added to the plates at 100 μL/well. After a 1.5-hour incubation, Biotinylated Human IGF-I Protein (Acro Biosystems, Cat #: IG1-H82F7) or Biotinylated Human IGF-I Protein was replaced with Biotinylated Human IGF-II Protein (Acro Biosystems, Cat #: IG2-H82Q6) were added to the plates at 100 μL/well. After a 1.5-hour incubation at 37° C., HRP Streptavidin (Biolegend, Cat #: 405210) at 1:3000 dilution was added to the plates at 100 μL/well and incubated for 1 hour. Plates were washed 5 times and 100 μL of TMB was added to each well, and incubated for 10 minutes. 100 uL of 1M Phosphoric Acid was then added to each well and ELISA plates were read at 450/570 nm wavelength. A fitting curve was obtained using Log (antibody concentration (M)) as the X-axis and […] as the Y-axis.
Binder,IC50 [nM],Max inhibition (%) (10 µg/mL)
B1,1.9,81
B2,1.7,76
B3,5.2,73
B4,1.6,88

# Molecular target: T4, His-tagged human IGF1R protein (ACRO …)
# Assay: SPR (Biacore 8K), antibody captured on Protein A chip, antigen as analyte, 1:1 model
# Method: The affinity of the anti-IGF1R antibodies to His-tagged human IGF1R protein (hIGF1R-His, ACRO Biosystems Inc., Cat #: IGR-H5229) and His-tagged cynomolgus monkey IGF1R protein (cIGF1R-His, ACRO Biosystems Inc., Cat #: IGR-C5225) were measured using surface plasmon resonance (SPR) using Biacore™ (Biacore, Inc., Piscataway N.J.) 8K biosensor equipped with pre-immobilized Protein A sensor chips.
# Purified anti-IGF1R antibodies were captured on the Protein A chip (Series S Sensor Chip Protein A) for the detection. 1 μg/mL or 10 μg/mL purified anti-IGF1R antibodies was loaded at 10 μL/min to bind to a gradient concentration of recombinant hIGF1R-His or cIGF1R-His (400 nM, 200 nM, 100 nM, 50 nM, 25 nM, 12.5 nM, 6.25 nM, 3.125 nM). The flow rate was 30 μL/min, the binding and dissociation time were set to 180 s and 800 s or 1200 s, respectively. The chip was regenerated after the last injection of each titration with a glycine solution (pH 2.0) at 30 μL/min for 30 seconds.
Binder,Kd [nM],koff [s⁻¹],kon [M⁻¹ s⁻¹]
B1,0.214,5.69e-06,26600
B2,1.63,1.26e-05,7750
B3,3.99,0.000162,40700
B4,1.72,1.05e-05,6120

# Molecular target: T4, His-tagged human IGF1R protein (ACRO …)
# Assay: SPR (Biacore 8K) on captured hIGF1R-His, binder injected second (Analyte 2); competitor injected first (Analyte 1): 12A4
# Method: Epitope binding assays were performed using Biacore™ 8K biosensor to determine whether two anti-IGF1R antibodies target the same or overlapping epitopes. 1×HBS-EP+ buffer (10 mM 4-(2-hydroxyethyl)-1-piperazineethanesulfonic acid (HEPES), 150 mM NaCl, 3 mM ethylenediaminetetraacetic acid (EDTA) and 0.05% P20, pH7.4) diluted from HBS-EP+buffer (10×) was used as the running buffer throughout the experiment. About 50 RU of hIGF1R-His was captured at a flow rate of 10 μL/min, and 200 nM of the tested antibody (Analyte 1) was injected at a flow rate of 30 uL/min to bind the ligand. Another comparison antibody (Analyte 2) was injected under the same conditions to determine whether the binding of different antibodies interfered with each other. The binding time was 180 s for each antibody.
# The binding value of each antibody was obtained using Biacore Insight Evaluation (Version: 2.0.15.12933). To quantify the interference of one antibody binding to another, a binding ratio was calculated to compare each pair of antibodies. The binding ratio is defined as the binding value of the second antibody (Analyte 2) divided by the binding value of the first antibody (Analyte 1). The threshold to determine the block or non-block is 0.3.
row,Binder,binding ratio (Analyte 2 / Analyte 1)
1,B1,-0.01
2,B2,0.02
3,B3,-0.03
4,B4,0
